Assay results reported in publication PMC9300723.

Molecular target: F5M-σ^A1.1^(S2C), fluorescein-labelled σ1.1 domain of Pae σ^A (Pseudomonas aeruginosa)
Assay: fluorescence polarisation; 2 nM fluorescein-labelled σ1.1 domain, Pae RNAP core enzyme 0-4096 nM; 10 mM Tris-HCl pH 7.7, 100 mM NaCl, 1 mM DTT, 1% glycerol, 0.025% Tween-20; 10 min at room temperature

Substance “Pae RNAP core enzyme (from UniProt O52760 1-333; Q51561 1-1357; Q9HWC9 2-1399; B7V5M8 1-88) (complex)” has a Kd of 0.22 µM.
